Reference: paper PMC5121590, “Antibody-antigen kinetics constrain intracellular humoral immunity” (Scientific Reports, 2016)
Positions count from the first letter of the chain named. Numbers in names are those of the source.

B1: h9C12 Fab Q97R (Fab, V domains shown)
VH: VQLKQSGPGLLQPSQRLSITCTVSGFSLGRYGVHWIRQSPGKGLEWLGVIWRGGTTDYNAVFMSRLSINKDDSKSQVFFTMNSLRPDDTAIYYCARRGSNFPLAYWGQGTLVTVSA
VL: NIVMTQTPKFLLVSIGDSITITCKASQSVTNDAAWYQKKPGQSPQLLIYQASTRYTGVPDRFSGSGYGTDFTFTISAVQAEDLAVYFCHQDYSSPLTFGAGTKLELK
notes: source: HEK293E, transiently co-transfected, purified (CaptureSelect CH1, SEC Superdex 75)
B2: h9C12 Fab Q97A/S99A/F101A/L103A (Fab, V domains shown)
VH: B1 VH with R97A, S99A, F101A, L103A
VL: B1 VL
notes: also called combined alanine mutations in H3; source: HEK293E, transiently co-transfected, purified (CaptureSelect CH1, SEC Superdex 75)
B3: h9C12 Fab G98P (Fab, V domains shown)
VH: B1 VH with R97Q, G98P
VL: B1 VL
notes: as for B1
B4: h9C12 Fab G32P (Fab, V domains shown)
VH: B1 VH with G32P, R97Q
VL: B1 VL
notes: as for B1
B5: recombinant humanized IgG1 version of 9C12 (h9C12), wild type (antibody, V domains shown)
VH: B1 VH with R97Q
VL: B1 VL
B6: full-length Adv5 hexon protein (natural protein)
chain: MATPSMMPQWSYMHISGQDASEYLSPGLVQFARATETYFSLNNKFRNPTVAPTHDVTTDRSQRLTLRFIPVDREDTAYSYKARFTLAVGDNRVLDMASTYFDIRGVLDRGPTFKPYSGTAYNALAPKGAPNPCEWDEAATALEINLEEEDDDNEDEVDEQAEQQKTHVFGQAPYSGINITKEGIQIGVEGQTPKYADKTFQPEPQIGESQWYETEINHAAGRVLKKTTPMKPCYGSYAKPTNENGGQGILVKQQNGKLESQVEMQFFSTTEATAGNGDNLTPKVVLYSEDVDIETPDTHISYMPTIKEGNSRELMGQQSMPNRPNYIAFRDNFIGLMYYNSTGNMGVLAGQASQLNAVVDLQDRNTELSYQLLLDSIGDRTRYFSMWNQAVDSYDPDVRIIENHGTEDELPNYCFPLGGVINTETLTKVKPKTGQENGWEKDATEFSDKNEIRVGNNFAMEINLNANLWRNFLYSNIALYLPDKLKYSPSNVKISDNPNTYDYMNKRVVAPGLVDCYINLGARWSLDYMDNVNPFNHHRNAGLRYRSMLLGNGRYVPFHIQVPQKFFAIKNLLLLPGSYTYEWNFRKDVNMVLQSSLGNDLRVDGASIKFDSICLYATFFPMAHNTASTLEAMLRNDTNDQSFNDYLSAANMLYPIPANATNVPISIPSRNWAAFRGWAFTRLKTKETPSLGSGYDPYYTYSGSIPYLDGTFYLNHTFKKVAITFDSSVSWPGNDRLLTPNEFEIKRSVDGEGYNVAQCNMTKDWFLVQMLANYNIGYQGFYIPESYKDRMYSFFRNFQPMSRQVVDDTKYKDYQQVGILHQHNNSGFVGYLAPTMREGQAYPANFPYPLIGKTAVDSITQKKFLCDRTLWRIPFSSNFMSMGALTDLGQNLLYANSAHALDMTFEVDPMDEPTLLYVLFEVFDVVRVHRPHRGVIETVYLRTPFSAGNATT
notes: also called human adenovirus 5 hexon; source: purified from Adv5-infected cells (CsCl-gradient, size exclusion)
B7: h9C12 Fab T55S (Fab, V domains shown)
VH: B1 VH with T55S, R97Q
VL: B1 VL
notes: as for B1
B8: h9C12 Fab W51E (Fab, V domains shown)
VH: B1 VH with W51E, R97Q
VL: B1 VL
notes: as for B1
B9: h9C12 Fab Q97A (Fab, V domains shown)
VH: B1 VH with R97A
VL: B1 VL
notes: as for B1
B10: h9C12 Fab N100A (Fab, V domains shown)
VH: B1 VH with R97Q, N100A
VL: B1 VL
notes: as for B1
B11: h9C12 Fab (wild type) (Fab, V domains shown)
VH: B1 VH with R97Q
VL: B1 VL
notes: also called WT h9C12; humanized 9C12; source: HEK293E, transiently co-transfected, purified (CaptureSelect CH1, SEC Superdex 75)
B12: h9C12 Fab G53P (Fab, V domains shown)
VH: B1 VH with G53P, R97Q
VL: B1 VL
notes: as for B1
B13: h9C12 Fab G98C/S99H (Fab, V domains shown)
VH: B1 VH with R97Q, G98C, S99H
VL: B1 VL
notes: as for B1
B14: h9C12 Fab G29R/R30S (Fab, V domains shown)
VH: B1 VH with G29R, R30S, R97Q
VL: B1 VL
notes: as for B1
B15: 9C12 Fab (original mouse format, SPR) (Fab, V domains shown)
VH: B1 VH with R97Q
VL: B1 VL
notes: also called mouse WT 9C12; source: gene fragment synthesized as cDNA; host stated only for the h9C12 variants (HEK293E)

Target: T1, recombinant AdV5 hexon protein (Human adenovirus C serotype 5 (HAdV-5), UniProt P04133)
T1 construct: source: bought: AbD Serotech
Test: SPR
Details: both partners purified

B1: no binding.
B2: no binding.
B3: no binding.
B4: no binding.

Target: T1, recombinant AdV5 hexon protein
Test: cell-based or functional assay
Details: not given

In the case of B5, the “neutralization of Adv5 infection in HEK293T cells” value is reported as about 25 fold.

Target: the molecule itself
Test: crystal structure; 9C12 Fab and hexon mixed 1:1 to a 5 mg/ml complex; crystals in 15% MPD, 5% PEG 4K, 0.1 M imidazole pH 8; 2.7 Å
Details: not given

B6: binds.

Target: T1, recombinant AdV5 hexon protein
Test: SPR
Details: both partners purified
Remark: another data set of the same source

In order of falling Kd:
1. B8  16900 nM
2. B9  462 nM
3. B12  330 nM
4. B13  288 nM
5. B14  92.8 nM
6. B7  1.2 nM
7. B15  1 nM
8. B10  0.9 nM
9. B11  0.8 nM

In order of rising koff:
1. B15  0.00045 s⁻¹
2. B11  0.00052 s⁻¹
3. B10  0.00085 s⁻¹
4. B7  0.00095 s⁻¹
5. B14  0.0049 s⁻¹
6. B13  0.0052 s⁻¹
7. B12  0.079 s⁻¹

In order of rising kon:
1. B13  18000 M⁻¹ s⁻¹
2. B14  53000 M⁻¹ s⁻¹
3. B12  239000 M⁻¹ s⁻¹
4. B15  447000 M⁻¹ s⁻¹
5. B11  635000 M⁻¹ s⁻¹
6. B7  795000 M⁻¹ s⁻¹
7. B10  889000 M⁻¹ s⁻¹
